The values that follow come from publication PMC7763846.

By stoichiometry N is commonly meant the number of molecules, sites or subunits per partner or assembly.

This assay concerns the target T1, recombinant mouse TNF-α (mouse), P06804.
T1 chain: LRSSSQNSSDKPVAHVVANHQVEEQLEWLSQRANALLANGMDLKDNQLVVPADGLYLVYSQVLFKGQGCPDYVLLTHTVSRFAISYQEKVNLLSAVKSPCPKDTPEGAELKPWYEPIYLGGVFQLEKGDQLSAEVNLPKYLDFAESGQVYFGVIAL
Briefly: cross-linking; 100 ng recombinant TNF-α incubated 1 h at 37 °C with different concentrations of DMSO (or without: cross-linked control), cross-linked with 4.8 mM BS3 for 30 min at room temperature, stopped with 1/10 volume 1 M Tris-HCl pH 7.5; SDS-PAGE and Western blot with anti-TNF-α antibody. As to conditions: remark: other sources report otherwise.

B1: recombinant mouse TNF-α, P06804 80-235 (ligand)
chain: LRSSSQNSSDKPVAHVVANHQVEEQLEWLSQRANALLANGMDLKDNQLVVPADGLYLVYSQVLFKGQGCPDYVLLTHTVSRFAISYQEKVNLLSAVKSPCPKDTPEGAELKPWYEPIYLGGVFQLEKGDQLSAEVNLPKYLDFAESGQVYFGVIAL
B1: the stoichiometry N turned out to be 3.
